From patent US20260146069A1 (PAPYRUS THERAPEUTICS, published 2026)

Target: the molecule itself
Assay: Western blot (8% SDS-PAGE, goat anti-human OPCML) of Ni-NTA purified protein; self-association
Description: Samples were separated on an 8% SDS-PAGE gel, transferred to a nitrocellulose or polyvinylidene fluoride (PVDF) membrane (Millipore Corporation), blocked, and incubated with polyclonal goat anti-human OBCAM (OPCML; R&D Systems) as a primary antibody, diluted 1:1000, at 4° C. overnight. After washing, the membrane was incubated with HRP-labeled anti-goat as the secondary antibody, diluted 1:5000. After final washings, proteins were detected using Immobilon Western Chemiluminescent HRP substrate system (Millipore) and GE Healthcare Amersham “Hyperfilm” ECL film with a Kodak SRX2000 (Rochester, NY, USA) developer machine.

B1: rOPCML-Fc protein (PYTX-004 construct) (Fc fusion)
chain: ATFPKAMDNVTVRQGESATLRCTIDDRVTRVAWLNRSTILYAGNDKWSIDPRVIILVNTPTQYSIMIQNVDVYDEGPYTCSVQTDNHPKTSRVHLIVQVPPQIMNISSDITVNEGSSVTLLCLAIGRPEPTVTWRHLSVKEGQGFVSEDEYLEISDIKRDQSGEYECSALNDVAAPDVRKVKITVNYPPYISKAKNTGVSVGQKGILSCEASAVPMAEFQWFKEETRLATGLDGMRIENKGRMSTLTFFNVSEKDYGNYTCVATNKLGNTNASITLYGPGGGGLEVLFQGPGGSTKGPSVFLFPPKPKDTLMISRTPEVTCVVVDVSHEDPEVKFNWYVDGVEVHNAKTKPREEQYNSTYRVVSVLTVLHQDWLNGKEYKCKVSNKALPAPIEKTISKAKGQPREPQVYTLPPSRDELTKNQVSLTCLVKGFYPSDIAVEWESNGQPENNYKTTPPVLDSDGSFFLYSKLTVDKSRWQQGNVFSCSVMHEALHNHYTQKSLSLSPGKRTGHHHHHH
notes: Expressed in HEK-293 clone 18G9 and purified on Ni-NTA; After purification it reports a 160 kDa form and an 80 kDa monomer; also called rOPCML-Fc PYTX-004; OPCML-Fc PYTX-004
Does B1 bind?
Result: binds
